Data as given in patent US20230183318A1 (published 2023).
Changes are numbered by the printed parent chain. Names and notes keep the numbering of the source.

B1: glycosylated PD-1 variant JY_Q12-2 (Q34N) (receptor)
chain: LDSPDRPLDPPTISPALLVVTEGDQATFTCSFSNTSKSFVLNWYRISPSQQTDKLAAFPEDRSQPGQDTRFRVTQLPNGRDFHMSVVRARRQDSGTYLCVAISLAPKVQIKESLRAELRVTERRAEVPTAHPSPSPRPACQFQ
modifications: sugar chain at N34 (N-linked glycosylation site restored, expressed in Expi293F)
B2: glycosylated PD-1 variant JY_Q12-1 (Q25N) (receptor)
chain: B1 chain with Q25N, N34Q
modifications: sugar chain at N25 (N-linked glycosylation site restored, expressed in Expi293F)
B3: glycosylated PD-1 variant JY_Q12-3 (Q50N) (receptor)
chain: B1 chain with N34Q, Q50N
modifications: sugar chain at N50 (N-linked glycosylation site restored, expressed in Expi293F)
B4: JY-Q12-4 (protein)
chain: B1 chain with N34Q, Q92N
B5: aglycosylated PD-1 variant Q12 (JY_Q12), soluble His-tagged protein (receptor)
chain: B1 chain with N34Q
B6: Q18 (protein)
chain: LDSPDRPWNPPTISPALLVVTEGDQATFTCGLPQTSESFVLNWYRIGPSQQMDKLAAFPEDRSQPGQDTRFRVTQLPNGRDFHMSVVRARRQDSGTYLCVAISLAPKVQIKESLRAELRVTERRAEVRTAHPSPSPRSAGQFQ
B7: Q33 (protein)
chain: B1 chain with L8W, D9N, N34R, K37E, R88G, R90Q, C140G
B8: Q10 (protein)
chain: B6 chain with G31S, P33S, G47S, V87D, T96S, R128P, S138P

Target: T1, PD-L1-streptavidin (UniProt Q9NZQ7 19-238)
Assay: BLI (BLItz)

T1 sequence (Q9NZQ7 19-238): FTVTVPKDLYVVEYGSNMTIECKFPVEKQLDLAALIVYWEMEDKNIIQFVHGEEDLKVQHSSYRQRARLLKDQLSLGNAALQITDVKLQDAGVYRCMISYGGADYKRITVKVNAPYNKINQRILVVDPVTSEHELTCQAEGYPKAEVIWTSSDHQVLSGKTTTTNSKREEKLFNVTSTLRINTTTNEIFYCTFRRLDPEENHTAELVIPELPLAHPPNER

Kd [nM] | Binder
0.899 | B1
7.38 | B2
3.24 | B3
17.3 | B4
11 | B5

Target: T1, PD-L1-streptavidin
Assay: BLI (BLItz)
Remark: another data set of the same source

Kd [nM] | Binder
5.49 | B5
46.9 | B6
35.1 | B7
50.1 | B8

Target: T1, PD-L1-streptavidin
Assay: BLI (BLItz); Fig. 12

Kd [nM] | Binder
5.49 | B5
